The text below walks through data of the Human Domainome abundance scans (Beltran et al. 2025).

± gives the uncertainty stated by the source.

B1: SH3 and PX domain-containing protein 2B, residues 155 to 209; numbered along this chain, A1X283 (parent)
chain: EQYVVVANYQKQESSEISLSVGQVVDIIEKNESGWWFVSTAEEQGWVPATCLEGQ

In this data set the parent is B1. The data set is described as follows: abundance fitness (aPCA) (normalised: wild type 0, dead -1); higher = more abundant; growth selection in yeast, the domain comes from the species named. As to conditions: Homo sapiens.
Take EQYVVVAYYQKQESSEISLSVGQVVDIIEKNESGWWFVSTAEEQGWVPATCLEGQ [N8Y]: the abundance fitness is -0.448 ± 0.18.

With EQYVVVATYQKQESSEISLSVGQVVDIIEKNESGWWFVSTAEEQGWVPATCLEGQ [N8T], the abundance fitness came to 0.018 ± 0.097.

In the case of EQYVVVAVYQKQESSEISLSVGQVVDIIEKNESGWWFVSTAEEQGWVPATCLEGQ [N8V], the abundance fitness is -0.296 ± 0.075.

For the variant EQYVVVAWYQKQESSEISLSVGQVVDIIEKNESGWWFVSTAEEQGWVPATCLEGQ [N8W], the abundance fitness is -0.524 ± 0.088.

As for EQYVVVANYQQQESSEISLSVGQVVDIIEKNESGWWFVSTAEEQGWVPATCLEGQ [K11Q], the abundance fitness was -0.132 ± 0.13.

Regarding EQYVVVANYQGQESSEISLSVGQVVDIIEKNESGWWFVSTAEEQGWVPATCLEGQ [K11G], the abundance fitness is -0.015 ± 0.054.

With EQYVVVANYQFQESSEISLSVGQVVDIIEKNESGWWFVSTAEEQGWVPATCLEGQ [K11F], the abundance fitness was -0.689 ± 0.19.

As to EQYVVVANYQMQESSEISLSVGQVVDIIEKNESGWWFVSTAEEQGWVPATCLEGQ [K11M], the abundance fitness was -0.115 ± 0.18.

Consider EQYVVVANYQPQESSEISLSVGQVVDIIEKNESGWWFVSTAEEQGWVPATCLEGQ [K11P], for which the abundance fitness was -0.034 ± 0.1.

As for EQYVVVANYQLQESSEISLSVGQVVDIIEKNESGWWFVSTAEEQGWVPATCLEGQ [K11L], the abundance fitness was -0.433 ± 0.11.

Turning to EQYVVVANYQWQESSEISLSVGQVVDIIEKNESGWWFVSTAEEQGWVPATCLEGQ [K11W], the abundance fitness was -0.496 ± 0.12.

With EQYVVVANYQNQESSEISLSVGQVVDIIEKNESGWWFVSTAEEQGWVPATCLEGQ [K11N], the abundance fitness is -0.33 ± 0.16.

EQYVVVANYQYQESSEISLSVGQVVDIIEKNESGWWFVSTAEEQGWVPATCLEGQ [K11Y]: the abundance fitness was -0.465 ± 0.14.

EQYVVVANYQEQESSEISLSVGQVVDIIEKNESGWWFVSTAEEQGWVPATCLEGQ [K11E]: the abundance fitness is -0.183 ± 0.11.

In the case of EQYVVVANYQHQESSEISLSVGQVVDIIEKNESGWWFVSTAEEQGWVPATCLEGQ [K11H], the abundance fitness was 0.064 ± 0.14.

Turning to EQYVVVANYQAQESSEISLSVGQVVDIIEKNESGWWFVSTAEEQGWVPATCLEGQ [K11A], the abundance fitness is -0.106 ± 0.081.

Consider EQYVVVANYQTQESSEISLSVGQVVDIIEKNESGWWFVSTAEEQGWVPATCLEGQ [K11T], for which the abundance fitness is -0.357 ± 0.14.

Turning to EQYVVVANYQRQESSEISLSVGQVVDIIEKNESGWWFVSTAEEQGWVPATCLEGQ [K11R], the abundance fitness amounted to 0.069 ± 0.065.

Take EQYVVVANYQSQESSEISLSVGQVVDIIEKNESGWWFVSTAEEQGWVPATCLEGQ [K11S]: the abundance fitness was -0.072 ± 0.087.

Take EQYVVVANKQKQESSEISLSVGQVVDIIEKNESGWWFVSTAEEQGWVPATCLEGQ [Y9K]: the abundance fitness was -0.619 ± 0.12.

Consider EQYVVVANWQKQESSEISLSVGQVVDIIEKNESGWWFVSTAEEQGWVPATCLEGQ [Y9W], for which the abundance fitness turned out to be 0.094 ± 0.12.

In the case of EQYVVVANAQKQESSEISLSVGQVVDIIEKNESGWWFVSTAEEQGWVPATCLEGQ [Y9A], the abundance fitness is -0.774 ± 0.12.

In the case of EQYVVVANQQKQESSEISLSVGQVVDIIEKNESGWWFVSTAEEQGWVPATCLEGQ [Y9Q], the abundance fitness was -0.744 ± 0.15.

Turning to EQYVVVANDQKQESSEISLSVGQVVDIIEKNESGWWFVSTAEEQGWVPATCLEGQ [Y9D], the abundance fitness was -0.491 ± 0.1.

For EQYVVVANGQKQESSEISLSVGQVVDIIEKNESGWWFVSTAEEQGWVPATCLEGQ [Y9G], the abundance fitness is -0.81 ± 0.083.

With EQYVVVANRQKQESSEISLSVGQVVDIIEKNESGWWFVSTAEEQGWVPATCLEGQ [Y9R], the abundance fitness is -0.21 ± 0.071.

As to EQYVVVANMQKQESSEISLSVGQVVDIIEKNESGWWFVSTAEEQGWVPATCLEGQ [Y9M], the abundance fitness is -0.508 ± 0.13.

In the case of EQYVVVANFQKQESSEISLSVGQVVDIIEKNESGWWFVSTAEEQGWVPATCLEGQ [Y9F], the abundance fitness was found to be 0.011 ± 0.12.

As to EQYVVVANCQKQESSEISLSVGQVVDIIEKNESGWWFVSTAEEQGWVPATCLEGQ [Y9C], the abundance fitness is -0.648 ± 0.14.

For the variant EQYVVVANNQKQESSEISLSVGQVVDIIEKNESGWWFVSTAEEQGWVPATCLEGQ [Y9N], the abundance fitness is -0.616 ± 0.22.

For the variant EQYVVVANEQKQESSEISLSVGQVVDIIEKNESGWWFVSTAEEQGWVPATCLEGQ [Y9E], the abundance fitness was -0.597 ± 0.11.

For the variant EQYVVVANSQKQESSEISLSVGQVVDIIEKNESGWWFVSTAEEQGWVPATCLEGQ [Y9S], the abundance fitness was -0.484 ± 0.091.

EQYVVVANVQKQESSEISLSVGQVVDIIEKNESGWWFVSTAEEQGWVPATCLEGQ [Y9V]: the abundance fitness was -0.249 ± 0.074.

Regarding EQYVVVANTQKQESSEISLSVGQVVDIIEKNESGWWFVSTAEEQGWVPATCLEGQ [Y9T], the abundance fitness is -0.312 ± 0.11.

For EQYVVVANIQKQESSEISLSVGQVVDIIEKNESGWWFVSTAEEQGWVPATCLEGQ [Y9I], the abundance fitness is -0.809 ± 0.37.

Turning to EQYVVVANYQKQERSEISLSVGQVVDIIEKNESGWWFVSTAEEQGWVPATCLEGQ [S14R], the abundance fitness is -0.073 ± 0.068.

For the variant EQYVVVANYQKQEHSEISLSVGQVVDIIEKNESGWWFVSTAEEQGWVPATCLEGQ [S14H], the abundance fitness was -0.125 ± 0.14.

Turning to EQYVVVANYQKQECSEISLSVGQVVDIIEKNESGWWFVSTAEEQGWVPATCLEGQ [S14C], the abundance fitness was -0.018 ± 0.1.

Consider EQYVVVANYQKQEASEISLSVGQVVDIIEKNESGWWFVSTAEEQGWVPATCLEGQ [S14A], for which the abundance fitness was -0.13 ± 0.11.

Regarding EQYVVVANYQKQEQSEISLSVGQVVDIIEKNESGWWFVSTAEEQGWVPATCLEGQ [S14Q], the abundance fitness was -0.347 ± 0.2.

Take EQYVVVANYQKQEMSEISLSVGQVVDIIEKNESGWWFVSTAEEQGWVPATCLEGQ [S14M]: the abundance fitness was -0.05 ± 0.13.

As for EQYVVVANYQKQEFSEISLSVGQVVDIIEKNESGWWFVSTAEEQGWVPATCLEGQ [S14F], the abundance fitness is -0.458 ± 0.15.

As for EQYVVVANYQKQENSEISLSVGQVVDIIEKNESGWWFVSTAEEQGWVPATCLEGQ [S14N], the abundance fitness was 0.083 ± 0.45.

EQYVVVANYQKQELSEISLSVGQVVDIIEKNESGWWFVSTAEEQGWVPATCLEGQ [S14L]: the abundance fitness was found to be 0.027 ± 0.1.

For EQYVVVANYQKQEPSEISLSVGQVVDIIEKNESGWWFVSTAEEQGWVPATCLEGQ [S14P], the abundance fitness was -0.005 ± 0.1.

Take EQYVVVANYQKQEISEISLSVGQVVDIIEKNESGWWFVSTAEEQGWVPATCLEGQ [S14I]: the abundance fitness came out at 0.014 ± 0.2.

In the case of EQYVVVANYQKQEKSEISLSVGQVVDIIEKNESGWWFVSTAEEQGWVPATCLEGQ [S14K], the abundance fitness stood at 0.026 ± 0.11.

Turning to EQYVVVANYQKQEGSEISLSVGQVVDIIEKNESGWWFVSTAEEQGWVPATCLEGQ [S14G], the abundance fitness is -0.071 ± 0.063.
